Data on one substance can be found in article PMC5507773.

The target of the test is LIMD1 (UniProt Q9UGP4). Kind of test: co-IP of Xpr-LIMD1 with EYFP-AGO2. To be noted: reference: wild type; sites S387.

In the case of AGO2 (from UniProt Q9UKV8) S387A, the “binding against the reference” value is listed as “weaker”.
